We go through two substances from patent US20050054023.

Some results are limits rather than exact numbers.

The subject of series [1] is T1, type 2 human TH-Ser31 peptide IMVRGQSPR
T1 sequence: IMVRGQSPR

Series [2] has as its system T2, peptide YQATGPLSPGFRR-NH2.
T2 sequence: YQATGPLSPGFRR

Series [3] deals with T3, rat TH-Ser31 peptide EAVTSPRFIGRR
T3 sequence: EAVTSPRFIGRR

The test system of series [4] is T4, type 1 human TH-Ser31 peptide EAIMSPRFK
T4 sequence: EAIMSPRFK

Series [5] relates to T5, rat TH-Ser31 peptide AVTSPRFIGRR
T5 sequence: AVTSPRFIGRR

Series [6] deals with T6, type 1 human TH-Ser31 peptide QAEAIMSPRFGRR-NH2.
T6 sequence: QAEAIMSPRFGRR

Series [7] relates to T7, type 2 human TH-Ser31 peptide EAIMVRGQSPRFK
T7 sequence: EAIMVRGQSPRFK

For series [8], the system named is T8, peptide QATGPLSPGPFRR-NH2.
T8 sequence: QATGPLSPGPFRR

For series [9], the system named is T9, MBPtide (Thr97) APRTPGGRR
T9 sequence: APRTPGGR

The test system of the next series is T10, peptide QATGPLSPGFRR-NH2.
T10 sequence: QATGPLSPGFRR

The subject of series [10] is T11, type 1 human TH-Ser31 peptide YQAEAIMSPRFIGRRQ
T11 sequence: YQAEAIMSPRFIGRRQ

Series [11] deals with T12, type 2 human TH-Ser31 peptide YIMVRGQSPR
T12 sequence: YIMVRGQSPR

For series [12], the system named is T13, rat TH-Ser31 peptide KQAEAVTSPR
T13 sequence: KQAEAVTSPR

Series [13] deals with T14, type 1 human TH-Ser31 peptide YQAEAIMSPRFIGRR-NH2.
T14 sequence: YQAEAIMSPRFIGRR

Another series deals with T15, ERKtide.
T15 sequence: ATGPLSPFGRR

Series [14] concerns T16, peptide YQATGPLSPGPFRR-NH2.
T16 sequence: YQATGPLSPGPFRR

The test system of series [15] is T17, type 1 human TH-Ser31 peptide AIMSPRFIGRR
T17 sequence: AIMSPRFIGRR

The test system of series [16] is T18, type 1 human TH-Ser31 peptide EAIMSPRFIGRR
T18 sequence: EAIMSPRFIGRR

Series [17] has as its system T19, EGF RECEPTOR (Thr669) peptide RRELVEPLTPSGEA
T19 sequence: RRELVEPLTPSGEA

In series [18] the test system is T20, TH (rat) Ser19 peptide RRAVSEQDAK
T20 sequence: RRAVSEQDAK

The test system of series [19] is T21, TH (rat) Ser8 peptide PTPSAPSPQPK
T21 sequence: PTPSAPSPQPK

For series [20], the system named is T22, TH (rat) Ser40 peptide GRRQSLIEDAR
T22 sequence: GRRQSLIEDAR

Chain of extracellular signal-regulated protein kinase 1 (purified, activated ERK1) (P27361 2-379): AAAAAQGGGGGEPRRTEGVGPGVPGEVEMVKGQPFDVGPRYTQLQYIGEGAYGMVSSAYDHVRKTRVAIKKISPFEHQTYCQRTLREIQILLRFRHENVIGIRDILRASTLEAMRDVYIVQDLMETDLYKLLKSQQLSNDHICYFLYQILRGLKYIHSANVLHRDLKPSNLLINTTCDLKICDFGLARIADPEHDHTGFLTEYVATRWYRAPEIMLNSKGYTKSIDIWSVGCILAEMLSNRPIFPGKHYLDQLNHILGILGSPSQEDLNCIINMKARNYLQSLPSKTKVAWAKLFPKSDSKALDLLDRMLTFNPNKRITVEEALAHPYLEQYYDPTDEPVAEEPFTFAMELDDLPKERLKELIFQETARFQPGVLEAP
Chain of extracellular signal-regulated protein kinase 2 (purified, recombinant, activated ERK2) (P28482 2-360): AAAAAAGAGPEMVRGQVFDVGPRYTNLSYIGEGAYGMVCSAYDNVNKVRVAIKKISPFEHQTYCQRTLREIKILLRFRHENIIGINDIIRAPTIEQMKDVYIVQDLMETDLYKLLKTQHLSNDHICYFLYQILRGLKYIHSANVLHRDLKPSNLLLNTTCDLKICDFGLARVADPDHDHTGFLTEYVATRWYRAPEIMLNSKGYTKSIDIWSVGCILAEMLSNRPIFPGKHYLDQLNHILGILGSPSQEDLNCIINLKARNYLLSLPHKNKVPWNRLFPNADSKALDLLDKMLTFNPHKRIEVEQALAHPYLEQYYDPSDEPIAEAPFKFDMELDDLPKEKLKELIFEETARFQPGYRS

In the case of “extracellular signal-regulated protein kinase 2 (purified, recombinant, activated ERK2)”, the RELATIVE ^32P INCORPORATION (% 3.3 µmol/min/mg) (% 3.3 µmol/min/mg) amounted to 1 in series [1]; 20 in series [3]; 21 in series [4]; 9 in series [5]; 2 in [7]; 80 in series [10]. The RELATIVE ^32P INCORPORATION (% 3.3 µmol/min/mg) (% 3.3 µmol/min/mg) in series [11] stood at 1; in [12], 7; in series [13] it was 100; in series [15], 29; in [16], 41. Besides, the RELATIVE ^32P INCORPORATION (% 3.0 µmol/min/mg), Mean (% 3.0 µmol/min/mg) turned out to be 215 in [2]; 107 in series [6]; 143 in series [8]; 182 in the series with peptide QATGPLSPGFRR-NH2; 100 in series [10]; 117 in series [13]. The same substance gave an RELATIVE ^32P INCORPORATION (% 3.0 µmol/min/mg), Mean (% 3.0 µmol/min/mg) in series [14] of 164. Further, the Km(app) is 1400 µM in series [4]; 2000 µM in series [9]; 1000 µM in [10]; 1800 µM in series [12]; 600 µM in the series with ERKtide. In addition, the Vmax(app) Relative in series [4] stood at 42 Relative; in series [9], 46 Relative; in series [10], 80 Relative; in series [12], 9 Relative; in the series on ERKtide, 82 Relative. The “^32P incorporation” value is 100 percent ^32P incorporation reflects 3.0 µmol/min/mg in [10] and 100 percent 32p incorporation reflects 3.3 µmol/min/mg in series [13]. Further, the “apparent Vmax” value in the series on ERKtide was “The apparent Vmax of ERKtide (SEQ ID NO: 23) was 9.4 µmol/min/mg”.
In the case of “extracellular signal-regulated protein kinase 1 (purified, activated ERK1)”, the RELATIVE ^32P INCORPORATION (% OF MBP) is 13 % OF MBP in series [17]; < 1 % OF MBP in [18]; < 1 % OF MBP in [19]; 100 % OF MBP in the series with myelin basic protein; < 1 % OF MBP in series [20]; 28 % OF MBP in [9]. In [12], the RELATIVE ^32P INCORPORATION (% OF MBP) worked out at 5 % OF MBP. Also, the “^32P incorporation” value in series [9] is “^32P incorporation into MBPtide (SEQ ID NO: 2) was 330 nmol/min/mg”.
